# From the DeepSol protein solubility set
# Test: soluble on expression in E. coli; label from the status in PepcDB or PDB records
row,Sequence,soluble on expression in E. coli
1,MKQASAIPQPKTYGPLKNLPHLEKEQLSQSLWRIADELGPIFRFDFPGVSSVFVSGHNLVAEVCDEKRFDKNLGKGLQKVREFGGDGLFTSWTHEPNWQKAHRILLPSFSQKAMKGYHSMMLDIATQLIQKWSRLNPNEEIDVADDMTRLTLDTIGLCGFNYRFNSFYRDSQHPFITSMLRALKEAMNQSKRLGLQDKMMVKTKLQFQKDIEVMNSLVDRMIAERKANPDENIKDLLSLMLYAKDPVTGETLDDENIRYQIITFLIAGHETTSGLLSFAIYCLLTHPEKLKKAQEEADRVLTDDTPEYKQIQQLKYIRMVLNETLRLYPTAPAFSLYAKEDTVLGGEYPISKGQPVTVLIPKLHRDQNAWGPDAEDFRPERFEDPSSIPHHAYKPFGNGQRACIGMQFALQEATMVLGLVLKHFELINHTGYELKIKEALTIKPDDFKITVKPRKTAAINVQRKEQADIKAETKPKETKPKHGTPLLVLFGSNLGTAEGIAGELAAQGRQMGFTAETAPLDDYIGKLPEEGAVVIVTASYNGAPPDNAAGFVEWLKELEEGQLKGVSYAVFGCGNRSWASTYQRIPRLIDDMMKAKGASRLTAIGEGDAADDFESHRESWENRFWKETMDAFDINEIAQKEDRPSLSITFLSEATETPVAKAYGAFEGIVLENRELQTAASTRSTRHIELEIPAGKTYKEGDHIGILPKNSRELVQRVLSRFGLQSNHVIKVSGSAHMAHLPMDRPIKVVDLLSSYVELQEPASRLQLRELASYTVCPPHQKELEQLVSDDGIYKEQVLAKRLTMLDFLEDYPACEMPFERFLALLPSLKPRYYSISSSPKVHANIVSMTVGVVKASAWSGRGEYRGVASNYLAELNTGDAAACFIRTPQSGFQMPNDPETPMIMVGPGTGIAPFRGFIQARSVLKKEGSTLGEALLYFGCRRPDHDDLYREELDQAEQDGLVTIRRCYSRVENEPKGYVQHLLKQDTQKLMTLIEKGAHIYVCGDGSQMAPDVERTLRLAYEAEKAASQEESAVWLQKLQDQRRYVKDVW,soluble
2,MERLQKVIARAGIASRRKAEELILQGRVKVNGRVVKELGVKVGPRDDVEVDGIPIEREEPVYYLLYKPRGVISSVKDDRGRKVVTDFFKDLDKRIYPIGRLDYDTSGLLLLTNDGDFANLLMHPRYEIEKVYIAKVKGIPTHEQLKRLEQGVQLEDGMTAPAKVKLLSADRKKGTAIVEIRIHEGRNRQVRRMFEAIGCEVLKLKRERYAFLDLKGLRPGEYRELTPHEVKLLRVLAQSGGRK,soluble
3,MGSDKIHHHHHHMNSSHGTSSSGASAGAHGALPLEAQKLNGWGRTAPTTAEVLTTPDLDIIVDAVRQVAEQNDSKPDYLKRGVIARGMGRSYGDPAQNAGGLVIDMQPLNKIHSIDPDSAIVDVDGGVTLDQLMKAALPYGLWVPVLPGTRQVTIGGAIGPDIHGKNHHSAGSFGDHVVSMELLVADGRILHLEPEGTAEDPQGDLFWATVGGMGLTGIIVRARIRMTKTETAYFIADTDRTNNLEETVAFHSDGSEHNYTYSSAWFDVISPEPKLGRSTISRGSLATLAQLEELAPKLAKDPLKFNAPQLMKVPDIFPSWTLNKLTLSAVGVAYYAMGAPAKNQVKNLTQFYQPLDLIGEWNRGYGSKGFLQYQFVVPTEAVEPFKDIIRDMQKSGHYSALNVFKLFGPGNRAPLSYPMPGWNVCVDFPIRPGLGAFLDDLDKRVMEFGGRLYLAKESRTSAENFHAMYPGMEGWLKTRNEIDPTGVFASDMSRRLELS,not soluble
4,MSWQLALYNGLWRALTPLVRRYLKKRARKAPAYLEHWDERFGQALSPSATGAIWIHAVSVGETRAAQPLVAAIRREWPDAPLLLTQMTPTGRATAEQLYPDAEVRYLPYDYPQAAADFLRAYRPRCGVLMETEIWPNLIHAAAAQRIPLLLANARLSEKSLNGYRKIAGLISPAIAKLTAVAAQTAEDADRLRQLGARSVSVCGSSKYDIEVPEAQRHLAADFRAMAGGRRALLCASTRDGEEALILDAWLAAGAAVGDTLLVLVPRHPERWDEVEKLAAERGLKSQRRSGGAAIAADTRVWLGDSMGEMFGYLGACDVAFIGGSLLPYGCHNLIEPAQVGVPALFGPSVFNFQQAAADSLAAGAGRQVGDAAALVSTALSLMDDPAAGEAMRQGAVRFRDAHRGASERMLALIREAMSAGSEKLEHHHHHH,not soluble
5,MSLNTGINCPFDCGLCARHRSHTNLLNIVLTNRCNLSCWYCFFYAREGEPVYEPTLEQIRMMLRNAKKENPIGANAVQFTGGEPTLRDDLIEIIKIAKEEGYDHVQLNTDGIRLAFEPELVKKIREAGVNTLYLSYDGMTPQTNWKNHWEIPLIFENVRKAGGPGIVLVPTLIRNVNDHEAGAIINFGLNHLDIVRGVNFQPISLVGRVPKKERQRFRITIAGAIKKIEEQTNGAISRDDWYPIPIAGYIARFFEAFTGKHYYMTSHYACGAATYVFLDKEEKKVIPIPRFIDVEGFVEFLVEKAEEIERARFKGLAKLKAIGETVFIKFKQFYDEKYAPKGLDVLGLIKNAFMHGNYDALGQFHTKTLFLGMMHFMDEYNYDVERVERCVIHYAMPDGRIVPFCTFNVIPEIYRDKVQRQFSYSWEEWKKLHPDWDYKKDKYFRTREFVEKMKNSELYRKTYIDIVNYFEEGHHHHHH,soluble
6,MIFGVSRTAGMQPHQNKLPPAFPICPPRFLQNKPPAPPLREAVRHSEYPDPRYEMTFQTAFAPPRFEYSGLTLNQDKATKPQTV,not soluble
7,MSLAQEIALTPQPAHLTVKDGRFEFGNQLKAKVTPYQGDSIRMVFESFKKELQEATGIKVSSTQKEAKARIILDLNPQLPAEAYKLNVSKKQVRIEASRPAGFYYALQTLKQLMPRNVMAGVATSDHSQWSLPSVEIEDAPRFEWRGFMLDEGRHFFGKDEIKRVIDMMAIYKMNRFHWHLTEDQGWRIEIKKYPKLTETGAWRNSKVLAYGDVKPDGERYGGFYTQKDIKEIVAYAKKKFIEIIPEIDIPGHSQAAVAAYPEFLACDPRDKHEVWLQQGISTDVINVANPKAMQFAKEVIDELTELFPFNYIHLGGDECPTRKWQKNDECKKLLSEIGSSNFRDLQIYFYKQLKDYIATKPADQQRQLIFWNEVLHGNTSILGNDITIMAWIGANAAAKQAAKQGMNTILSPQIPYYINRKQSKLPTEPMSQGHGTETVEAVYNYQPLKDVDAALQPYYKGVQANFWTEWVTEPSVLEYLMLPRLAAVAEAGWTPQEKRNYEDFKERIRKDAELYDLKGWNYGKHIMKEGHHHHHH,soluble
8,MGSDKIHHHHHHMEKIIEINDSIIQISDLNDRIYIMKLGKDVGELIKHVDSVCNEKKLSKVFAKVSGNKKELFEKNGYICEGKLENYYSNDDAYFMSKFFEESRKISKFSKEAEDVLNYVKTVGVNPHTKIDEKFHLKIANETDAEKLSKHYSKVFKTYPFPIDDPNYILKTMQTNVKYFIIEDNGKIVAASSCEMDIKNKCVEMTDFAVLEEYQKLGLSKYLLYIMEKIMKDNGYRVFYTIARSISYGMNITFKKMGYMYSGTAVNNTNICGNFEDMNFWYKLSE,not soluble
9,MGSDKIHHHHHHMKVFSERADKPHAYLFGEYTNPLGFDPVELALSEDGQAWQSIFDDPNLSNVYLVDFDWLPPVIADTYRTAGTRDGQQLANSRLDQRDIVLKFIAYCRGDADEKLTFQSLSNFLIRRHNYWVAFDNDGSRMYHVREKTITAEYYGDKMMMITVTLNNFTGVAQSIMPSAHINEMPNIGLGLPTDIVNYVFRTSEFDVNNIGELPVDPLVQGDYFDITLTGIGSPTIANTTTGDAITCTKSLTTGDTFKLIGVNPQINGQAAGINTDNGIIRLASGNNHFKITGCQDLNCTVNFYFKYLN,not soluble
10,MAHHHHHHMLRRVLSRGPLPQSLSVGPTSKLTVNKGKLAKSRGVHVHFLTIAECAAAAGDASAPIPPGFTGKAGEVDFQTLWTTAQDPATAESVLRKSGRKAAGARRAAEKPAELVAGMGAHSTVRDYRLAVTAAVRKAKMCNAAWVSLHPPKQDVFTMTDPYHPPQRLKSHEMVEKTAIFAVTGAYQYDRLKSGTLASKDSAQTGRTRARRAESRAKPPAAPQPPMELVVASSNAQAVRAGEVIGHCVNEARNLGNLREDEGVPEFYAEWAKKYMIPEGIKVRKVLRGQQLEEAGLHLMYNVGRGSRYEPYLVVLEYIGNPRSSATTAIVGKGVTFDCGGLNIKPYTSMETMHSDMMGAATAFCTLKAIAKLQLPINVVAAVGLVENAIGPESYHPSSIITSLKGLTVEVLNTDAEGRLVLADVLTYVQKYAPLDKKPTRIIDLATLTGAIIVGLGSRRAGLFSPSAMLANSLMAAGTQCGEELWPMPIGDEHKDMMKGGIADLINAAPGRQAGSCTAAAFLSNFVEPEVQWAHLDIAGVADVGDKPKGYEPAGVTGFGVQLLVDFLRHNKP,not soluble
